Experimental findings from publication PMC4528719, “Functional role of dimerization and CP190 interacting domains of CTCF protein in Drosophila melanogaster” (BMC Biology, 2015) are described below.

The stoichiometry N is the number of molecules, sites or subunits per partner or assembly.

The target of series [1] is T1, thioredoxin-tagged CP190-BTB (Drosophila).
T1 sequence (Q24478 whole entry, looked up): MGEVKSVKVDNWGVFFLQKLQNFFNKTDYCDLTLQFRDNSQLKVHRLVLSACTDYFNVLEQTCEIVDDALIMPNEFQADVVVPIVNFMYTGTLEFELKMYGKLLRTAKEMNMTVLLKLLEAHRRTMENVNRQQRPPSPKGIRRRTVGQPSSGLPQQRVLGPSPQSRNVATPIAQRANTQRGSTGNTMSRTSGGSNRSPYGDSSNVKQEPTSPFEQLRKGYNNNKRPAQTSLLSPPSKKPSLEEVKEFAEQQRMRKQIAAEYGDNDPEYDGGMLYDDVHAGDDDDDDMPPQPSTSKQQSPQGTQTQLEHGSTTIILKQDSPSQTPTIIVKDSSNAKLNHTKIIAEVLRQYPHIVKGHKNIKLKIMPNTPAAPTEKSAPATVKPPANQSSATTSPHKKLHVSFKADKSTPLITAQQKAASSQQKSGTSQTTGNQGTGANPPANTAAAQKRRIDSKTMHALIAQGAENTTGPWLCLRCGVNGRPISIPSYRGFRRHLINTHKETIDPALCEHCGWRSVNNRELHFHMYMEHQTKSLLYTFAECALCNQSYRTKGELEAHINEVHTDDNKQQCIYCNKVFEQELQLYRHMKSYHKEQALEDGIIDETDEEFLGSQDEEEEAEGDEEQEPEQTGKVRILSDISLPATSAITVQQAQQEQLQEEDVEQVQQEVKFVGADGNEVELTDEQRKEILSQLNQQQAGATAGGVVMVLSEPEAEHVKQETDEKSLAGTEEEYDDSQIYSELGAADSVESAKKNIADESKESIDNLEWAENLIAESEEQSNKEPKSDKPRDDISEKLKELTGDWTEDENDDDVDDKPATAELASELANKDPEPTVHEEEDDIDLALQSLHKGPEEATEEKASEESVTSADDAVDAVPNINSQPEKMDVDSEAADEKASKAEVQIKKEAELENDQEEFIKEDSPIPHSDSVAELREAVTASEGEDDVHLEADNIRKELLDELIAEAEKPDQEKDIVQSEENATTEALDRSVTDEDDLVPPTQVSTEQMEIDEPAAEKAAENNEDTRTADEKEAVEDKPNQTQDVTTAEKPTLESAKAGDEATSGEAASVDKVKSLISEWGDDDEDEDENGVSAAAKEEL
Put plainly: cross-linking; CP190-BTB constant at 20 μM, alone or mixed with CTCF-CTD at stated molar ratios, 2 h (legend of Fig. 4b: 1 h) at room temperature, then glutaraldehyde; buffer B; SDS-PAGE, Coomassie or silver staining.

Series [2] concerns the molecule itself. Put plainly: cross-linking; one protein alone at 5 μM, increasing glutaraldehyde, 10 min at room temperature, 20 mM HEPES-KOH pH 7.7, 150 mM NaCl, 20 mM imidazole, 1 mM β-mercaptoethanol; SDS-PAGE, silver staining.
For series [3], the target named is T2, dCTCF–CTD 612–818 protein (Drosophila melanogaster, UniProt Q9VS55 612-818).
T2 construct: also called CTD protein; source: E. coli BL21, purified (Ni-NTA)
T2 sequence (looked up): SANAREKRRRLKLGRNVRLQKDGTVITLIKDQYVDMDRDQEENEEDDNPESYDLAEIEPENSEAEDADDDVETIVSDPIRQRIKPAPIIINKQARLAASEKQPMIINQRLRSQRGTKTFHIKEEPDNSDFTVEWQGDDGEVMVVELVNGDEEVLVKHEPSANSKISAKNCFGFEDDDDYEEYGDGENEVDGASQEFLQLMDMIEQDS
Nature of the series: pull-down; GST–CP190 fragments on glutathione agarose, recombinant dCTCF-CTD in solution; 2 h room temperature, buffer C; washes with 500 mM NaCl (Fig. 3f). The following applies: both partners purified.

Regarding “thioredoxin-tagged CP190-BTB (domain or fragment)”, the stoichiometry N in series [1] worked out at 2.

B1: thioredoxin-tagged dCTCF NTD 1–163 (domain or fragment, Drosophila melanogaster, UniProt Q9VS55 1-163, looked up)
chain: MPRRTKKDEDPEDLQTFLNNFHKEIEGNSDEKVVNTILEAISAEAIDLDENGAEAGGSKPMEEAEADLDHAEEAEEEEEDDEDKYFIDDEGNCYIKTTPKKQKELQKKLKQAAAKPGKATRSVVSTATNKSINLRPAKSTPKATTSKPPPEPKAISVRPARAA
notes: dCTCF, Drosophila melanogaster, residues 1-163; pET32a(+) vector; purified on Ni-NTA, so a His tag is likely present; source: E. coli BL21, purified (Ni-NTA)
With B1, the “stoichiometry N” value in series [2] is around 4.

B2: dCTCF NTD 125–180 (domain or fragment, Drosophila melanogaster, UniProt Q9VS55 125-180, looked up)
chain: STATNKSINLRPAKSTPKATTSKPPPEPKAISVRPARAAAAKAKQSAMPPPPALVV
notes: dCTCF, Drosophila melanogaster, residues 125-180; source: E. coli BL21, purified (Ni-NTA)
As for B2, the binding result in series [2] is “binds”.

B3: dCTCF–CTD 612–818 protein (domain or fragment)
chain: T2 sequence (looked up)
Regarding B3, the stoichiometry N in series [1] turned out to be 2 BTB per CTD.

B4: dCTCF NTD 70–163 (domain or fragment, Drosophila melanogaster, UniProt Q9VS55 70-163, looked up)
chain: HAEEAEEEEEDDEDKYFIDDEGNCYIKTTPKKQKELQKKLKQAAAKPGKATRSVVSTATNKSINLRPAKSTPKATTSKPPPEPKAISVRPARAA
notes: dCTCF, Drosophila melanogaster, residues 70-163; source: E. coli BL21, purified (Ni-NTA)
As for B4, the binding result in series [2] is “binds”.

B5: thioredoxin NTD 1–205 fusion protein of dCTCF (domain or fragment, Drosophila melanogaster, UniProt Q9VS55 1-205, looked up)
chain: MPRRTKKDEDPEDLQTFLNNFHKEIEGNSDEKVVNTILEAISAEAIDLDENGAEAGGSKPMEEAEADLDHAEEAEEEEEDDEDKYFIDDEGNCYIKTTPKKQKELQKKLKQAAAKPGKATRSVVSTATNKSINLRPAKSTPKATTSKPPPEPKAISVRPARAAAAKAKQSAMPPPPALVVKVPAPRGRPRKNPVIPKPEPMDLER
notes: pET32a(+) vector; purified on Ni-NTA, so a His tag is likely present; source: E. coli BL21, purified (Ni-NTA)
Regarding B5, the binding result in series [2] is on record as “binds”.

B6: GST–CP190 BTB domain (1–126) (domain or fragment, Drosophila, UniProt Q24478 1-126, looked up)
chain: MGEVKSVKVDNWGVFFLQKLQNFFNKTDYCDLTLQFRDNSQLKVHRLVLSACTDYFNVLEQTCEIVDDALIMPNEFQADVVVPIVNFMYTGTLEFELKMYGKLLRTAKEMNMTVLLKLLEAHRRTM
In the case of B6, the binding result in series [3] is recorded as “binds”.
